Usually Kd stands for the concentration at which binding is half-saturated. The term koff denotes a measure of how fast the partners let go of each other. For orientation: kon means the second-order rate constant of association.

For experiment [1], the target named is T1, recombinant human RSPO2 (human, UniProt Q6UXX9 22-243).
T1 construct: Recombinant protein of the WNT reporter assays and of the Octet binning (R&D Systems; biotinylated for Octet); also called rhRSPO2; hRSPO2
The experiment is described as follows: SPR (Biacore) with the Fab; table row RSPO2, Affinity (nM) Fab. The method, then: (§1) For kinetic measurements, two-fold serial dilutions of anti-RSPO Fabs were injected in HBS-P buffer (0.01M HEPES pH 7.4, 0.15M NaCl, 0.005% surfactant P20) at 25° C. with a flow rate of 30 μl/min. Association rates (kₒₙ) and dissociation rates (koff) were calculated using a simple one-to-one Langmuir binding model (BIAcore Evaluation Software version 3.2). The equilibrium dissociation constant (KD) was calculated as the ratio koff/kₒₙ.
(§2) Surface plasmon resonance was used to confirm binding specificities and affinities to human, mouse, and cynomolgus RSPOs. Fab fragments from antibody clones were digested, purified, and then assayed using a BIAcore™-2000 instrument for binding to recombinant proteins. Antibodies fell into three groups: those specific to RSPO2, those specific to RSPO3, and those with some degree of cross-reactivity (FIG. 5).

Experiment [2] addresses T2, cynomolgus RSPO2 (cynomolgus, UniProt G7PCH9 22-243).
T2 construct: also called cynoRSPO2; rcynoRSPO2
The description is as above. The method, then: as §1, §2

Experiment [3] concerns the target T3, mouse RSPO2 (mouse, UniProt Q8BFU0 22-205, limits assumed).
T3 construct: also called mRSPO2
Described as above. The method, then: as §1, §2

The target of experiment [4] is T4, recombinant human RSPO3 (human, UniProt Q9BXY4 22-272).
T4 construct: also called rhRSPO3; hRSPO3
T4 sequence: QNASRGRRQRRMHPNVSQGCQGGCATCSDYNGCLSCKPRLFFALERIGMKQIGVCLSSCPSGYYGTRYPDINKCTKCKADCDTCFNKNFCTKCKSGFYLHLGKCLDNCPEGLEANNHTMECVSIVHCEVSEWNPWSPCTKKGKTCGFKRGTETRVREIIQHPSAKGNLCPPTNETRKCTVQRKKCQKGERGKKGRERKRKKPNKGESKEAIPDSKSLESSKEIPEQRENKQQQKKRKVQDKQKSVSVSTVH
Description: SPR (Biacore) with the Fab; table row RSPO3, Affinity (nM) Fab. The method, then:
as §1, §2

Experiment [5] has as its target T5, cynomolgus RSPO3 (cynomolgus, UniProt A0A2K5UTQ7 22-273).
T5 construct: also called cynoRSPO3; rcynoRSPO3
T5 sequence: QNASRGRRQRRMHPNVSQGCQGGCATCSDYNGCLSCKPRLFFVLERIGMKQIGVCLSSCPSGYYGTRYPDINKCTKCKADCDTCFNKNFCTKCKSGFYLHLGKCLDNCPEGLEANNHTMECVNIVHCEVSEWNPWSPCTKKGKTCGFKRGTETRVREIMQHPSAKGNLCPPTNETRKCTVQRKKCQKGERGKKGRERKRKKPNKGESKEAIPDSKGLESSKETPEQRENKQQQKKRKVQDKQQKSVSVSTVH
The description is as above. The method, then:
as §1, §2

The target of experiment [6] is T6, mouse RSPO3 (mouse, UniProt Q2TJ95 22-277, limits assumed).
T6 construct: also called mRSPO3; murine RSPO3
T6 sequence (looked up): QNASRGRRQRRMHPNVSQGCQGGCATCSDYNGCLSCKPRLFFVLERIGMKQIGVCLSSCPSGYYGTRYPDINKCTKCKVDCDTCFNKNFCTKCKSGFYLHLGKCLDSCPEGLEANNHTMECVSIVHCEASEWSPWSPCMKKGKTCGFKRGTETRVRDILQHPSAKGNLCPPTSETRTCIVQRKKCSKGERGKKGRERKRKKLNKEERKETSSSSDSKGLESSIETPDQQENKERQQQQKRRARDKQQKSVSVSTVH
Described as above. The method, then: as §1, §2

Experiment [7] deals with T4, recombinant human RSPO3. The experiment is described as follows: SPR, BIAcore T200, huRSPO3 immobilized, antibody injected. The protocol:
(§3) The binding affinity of the antibodies in this section was determined by BIAcore™ T200 Format. Briefly, BIAcore™ research grade CMS chips were activated with 1-ethyl-3-(3-dimethylaminopropyl) carbodiimide (EDC) and N-hydroxysuccinimide (NETS) reagents according to the supplier's instructions. huRSPO3 was immobilized to achieve approximately 50 response units (RU) in each flow cell. Unreacted coupling groups were blocked with 1M ethanolamine. For kinetics measurements, Four-fold serial dilutions of variant antibody was injected in HBS-P buffer (0.01M HEPES pH7.4, 0.15M NaCl, 0.005% surfactant P20) at 25° C. with a flow rate of 30 μl/min. Association rates (kon) and dissociation rates (koff) were calculated using a 1:1 Langmuir binding model (BIAcore™ T200 Evaluation Software version 2.0). The equilibrium dissociation constant (Kd) was calculated as the ratio koff/kon.

For experiment [8], the target named is T5, cynomolgus RSPO3. The experiment is described as follows: SPR, BIAcore T200, cyno RSPO3 immobilized, antibody injected. The method, then:
as §3
(§4) The hu5D6v4.1 and the chimeric 5D6 were tested for their ability to bind cyno and mouse RSPO3 as described above except that cyno or murine RSPO3 replaced huRSPO3 in the binding assay. Binding properties for the humanized antibodies are shown below in Table 5.
(In SPR one partner is held on a chip, and binding of the other changes the refractive index at the surface.)

In experiment [9] the target is T6, mouse RSPO3. The experiment is described as follows: SPR, BIAcore T200, murine RSPO3 immobilized, antibody injected. The protocol:
as §3, §4

The target in experiment [10] is T7, FLAG-tagged human RSPO2 (Genentech) (human, UniProt Q6UXX9 22-243).
T7 construct: also called hRSPO2; RSPO2 coated plates; not shown: FLAG tag
T7 sequence (Q6UXX9 22-243): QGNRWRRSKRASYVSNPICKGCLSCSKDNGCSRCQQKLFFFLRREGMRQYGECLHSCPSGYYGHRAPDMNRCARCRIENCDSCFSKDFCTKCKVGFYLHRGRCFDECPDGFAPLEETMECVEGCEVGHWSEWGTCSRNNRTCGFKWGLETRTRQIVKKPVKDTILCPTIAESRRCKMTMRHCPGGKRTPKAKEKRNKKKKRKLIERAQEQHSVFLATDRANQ
The experiment is described as follows: competitive binding ELISA: titrated against biotinylated RNF43-Flag (RNF43-ECD) binding to plate-coated hRSPO2; signal = bound RNF43, normalized OD.

Experiment [11] addresses T8, FLAG-tagged human RSPO3 (Genentech) (human, UniProt Q9BXY4 22-272).
T8 construct: also called hRSPO3; RSPO3 coated plates; not shown: FLAG tag
T8 sequence: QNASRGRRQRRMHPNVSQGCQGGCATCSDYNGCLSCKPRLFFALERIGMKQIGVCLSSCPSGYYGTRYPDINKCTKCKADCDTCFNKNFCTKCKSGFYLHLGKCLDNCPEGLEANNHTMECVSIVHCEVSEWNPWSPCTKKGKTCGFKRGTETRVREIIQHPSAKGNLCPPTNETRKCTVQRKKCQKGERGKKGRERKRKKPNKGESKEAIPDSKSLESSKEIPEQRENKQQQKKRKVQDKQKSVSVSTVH
Description: competitive binding ELISA: titrated against biotinylated RNF43-Flag (RNF43-ECD) binding to plate-coated hRSPO3; signal = bound RNF43, normalized OD. Background: In an ELISA, binding on a coated surface is turned into a signal by an enzyme label.

T1 sequence (Q6UXX9 22-243): as the sequence (Q6UXX9 22-243) above
T2 sequence (G7PCH9 entry or part of it): as the sequence (Q6UXX9 22-243) above, with V160A, L165P, T178A counted along it
T3 sequence (Q8BFU0 22-205 limits assumed): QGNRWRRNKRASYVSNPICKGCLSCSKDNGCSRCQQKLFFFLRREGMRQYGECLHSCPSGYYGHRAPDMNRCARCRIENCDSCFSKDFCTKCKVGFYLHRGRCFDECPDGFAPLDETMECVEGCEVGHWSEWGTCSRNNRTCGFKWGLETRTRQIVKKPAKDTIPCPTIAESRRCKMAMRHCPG

B1: 36D2 (Fab, V domains shown)
VH: QIQLQESGPGLVKPSQSLSLTCSVTGNSITSSDWSWIRQFPGKKLEWMGYMNYGGGTYYNPSLENRISITRDTSKNQFFLHLKSVTTEDTATYYCARERPHPYAYFDVWGQGIQVTVSS
VL: ELVFTQPQSVSGSLGQEISISCTRSSGNIGSNYVSWYQQQSSNKPRLLIYKFDQRPSGVPDRFSGSTDSSSNSGILTISRLQPEDEGDYYCLSGYDKYVFGSGTQLTLL
notes: also called Fab of 36D2; 36D2 Fab
Regarding B1, the Kd in [1] was found to be 6.3 nM; in [2], 11 nM; in [3], 5.5 nM. The binding result in experiment [4], in experiment [5] and in experiment [6] was “no binding” in each case.

B2: 5E11 (Fab, V domains shown)
VH: QVQLKQSGPGLVQPSQSLSITCTVSGFSLSSYAVHWVRQSPGEGLEWLGVIWSGGSTDYNAAFISRMSITKDNSKSQVFFKMNSLQADDTAIYFCARNDGYYYFDYWGQGTTLTVSS
VL: DIVMTQSTSSLSASLGDRVTISCRASQDISNYLNWYQQKPDGTVKLLIYYTSRLHSGVPSRFSGSGSGTDYSLTISNLEKEDVATYFCQHGDTLPPTFGGGTKLEIK
notes: also called Fab of 5E11; 5E11 Fab
B2: the binding result in experiment [2] and in [3] was “no binding” in each case. The Kd in experiment [4] was 10.6 nM; in experiment [5] it was 39 nM; in experiment [6] it was 98 nM.

B3: 5C2 (Fab, V domains shown)
VH: EVQLQESGPGLVAPSQSLSITCTVSGFSLTSYGVHWVRQPPGKGLEWLGVIWTGGSTNYNSALMSRLSISKDNSKSQVFLKMNSLQTDDTAMYYCARVDGYYYFDYWGQGTTLTVSS
VL: DIVMTQSTSSLSASLGDRVTISCRASQDISNYLNWYQQKPDGTVKLLIYYTSRLHSGVPSRFSGSGSGTDYSLTISNLEPEDIATYFCQQGDTLPPTFGGGTKLEIK
notes: also called Fab of 5C2; 5C2 Fab
For the molecule B3, the binding result in experiment [2] and in experiment [3] was “no binding” each time. The Kd in [4] is 17 nM; in experiment [5], 70 nM; in experiment [6] it was 63 nM.

B4: Fab 26E11 (Fab, V domains shown)
VH: EVQLQESGPSLVKPSQTLSLTCSVTGDSITSGYWSWIRKFPGNKLEFMGYISFSGKTYYIPSLKSRVSITRDTSKNQYYLQLNSVTTEDTATYYCATYHGYGGPWFAYWGQGTLVTVSS
VL: DIKMTQSPSSMYASLGERVTITCKASQDIDSYLSWFQQKPGKSPKTLIYLTNRLIDGVPSRFSGSGSGQDYSLTINSLEYEDMGIYYCLQYDEFPVTFGAGTRLEIK
notes: Fab expressed in E. coli for crystallography; also called 26E11 Fab
In the case of B4, the Kd in experiment [1] came to 80 nM; in experiment [2], 62 nM; in experiment [3] it was 66 nM; in [4], 0.7 nM; in [5] it was 2.43 nM; in experiment [6] it was 1.42 nM.

B5: hu5D6v4.1 (Fab, V domains shown)
VH: EVQLVESGPGLVKPSETLSLTCTVSGDSITSGYWNWIRQPPGKGLEWIGYISYSGKTYQNPSLKSRVTISRDTSKNQFSLKLSSVTAADTAVYYCATYYGYGGPWFAYWGQGTLVTVSS
VL: DIQMTQSPSSLSASVGDRVTITCKASQDIDSYLSWFQQKPGKAPKTLIYLTNRLVDGVPSRFSGSGSGTDYTLTISSLQPEDFATYYCLHYDEFPLTFGQGTKVEIK
notes: Humanized 5D6 variant; also called v1+T69 (LC)+(W47+I48+V67+F78 (HC))
B5: the values for the equilibrium dissociation constant (Kd) in experiment [7], in experiment [8] and in experiment [9] were 0.0635 nM, 0.0811 nM and 0.0993 nM, respectively. The koff in experiment [7] is 0.000229 s⁻¹; in experiment [8] it was 0.000434 s⁻¹; in experiment [9], 0.000423 s⁻¹. For the same molecule, the association rate constant (kon) is 3.6e+06 M⁻¹ s⁻¹ in experiment [7], 5.35e+06 M⁻¹ s⁻¹ in [8] and 4.26e+06 M⁻¹ s⁻¹ in experiment [9].

B6: 11F11 (Fab, V domains shown)
VH: QVQLQQSGPQLVKPGFSVKFSCKASGITFTEYYVTWVKQRAGQGLEWVGDIDPENGDTDYNQKFQGKATITADKSSSTAYMELSSLTSEDSAVYYCATGYDYAFDSWGQGTLVTVSS
VL: QPVLTQSPSASASLGASVKLTCTLSSQHSSYGITWLQQHPDKAPKCVMYLRSDGSHSKGDGIPDRFSGSSSGAHRYLSISNVQPEDEAIYFCVTYDSTVGVFGSGTQLTVP
notes: also called Fab of 11F11; 11F11 Fab
For the molecule B6, the Kd in experiment [1] came to 63 nM. Also, the binding result in [3], in experiment [4], in [5] and in [6] was “no binding” throughout.

B7: 1A1 (Fab, V domains shown)
VH: EVQLVESGGGLVKPEGSLKLSCVASGFTFSDYFMSWVRQAPGQGLEWVAHIYTKTYNYATYYSGSVKGRFSISRDDSRNMVYLQMNNLRTEDTATYYCTTDEDWYFDFWGQGTQVTVSS
VL: QPVLTQSPSVSASLGASVKLTCTLSSQHSTNYIEWYQQHPDKSPKFLMQVRDGSHSKGDGTPDRFSGSSSGAHRYLSISNLQLEDEAIYYCGLSDVSLYLFGSGTQLTLL
notes: also called Fab of 1A1; 1A1 Fab
Consider B7, for which the Kd in experiment [1] was found to be 2.9 nM; in experiment [2], 1.4 nM; in experiment [3], 3.6 nM. Moreover, the binding result in experiment [4], in experiment [5] and in experiment [6] was “no binding” throughout.

B8: RNF43 (receptor)
chain: GFGRTGLVLAAAVESERSAEQKAIIRVIPLKMDPTGKLNLTLEGVFAGVAEITPAEGKLMQSHPLYLCNASDDDNLEPGFISIVKLESPRRAPRPCLSLASKARMAGERGASAVLFDITEDRAAAEQLQQPLGLTWPVVLIWGNDAEKLMEFVYKNQKAHVRIELKEPPAWPDY
notes: kept apart from the biotinylated tracer m34; not shown: FLAG tag and any linker to it
Take B8: the “IC50 (read off the curve)” value in experiment [10] is about 0.2 µg/mL; in experiment [11] it was about 0.5 µg/mL.
